B1: Serine/arginine-rich splicing factor 7 (Homo sapiens), Q16629 (parent)
chain: MSRYGRYGGETKVYVGNLGTGAGKGELERAFSYYGPLRTVWIARNPPGFAFVEFEDPRDAEDAVRGLDGKVICGSRVRVELSTGMPRRSRFDRPPARRPFDPNDRCYECGEKGHYAYDCHRYSRRRRSRSRSRSHSRSRGRRYSRSRSRSRGRRSRSASPRRSRSISLRRSRSASLRRSRSGSIKGSRYFQSPSRSRSRSRSISRPRSSRSKSRSPSPKRSRSPSGSPRRSASPERMD
partner: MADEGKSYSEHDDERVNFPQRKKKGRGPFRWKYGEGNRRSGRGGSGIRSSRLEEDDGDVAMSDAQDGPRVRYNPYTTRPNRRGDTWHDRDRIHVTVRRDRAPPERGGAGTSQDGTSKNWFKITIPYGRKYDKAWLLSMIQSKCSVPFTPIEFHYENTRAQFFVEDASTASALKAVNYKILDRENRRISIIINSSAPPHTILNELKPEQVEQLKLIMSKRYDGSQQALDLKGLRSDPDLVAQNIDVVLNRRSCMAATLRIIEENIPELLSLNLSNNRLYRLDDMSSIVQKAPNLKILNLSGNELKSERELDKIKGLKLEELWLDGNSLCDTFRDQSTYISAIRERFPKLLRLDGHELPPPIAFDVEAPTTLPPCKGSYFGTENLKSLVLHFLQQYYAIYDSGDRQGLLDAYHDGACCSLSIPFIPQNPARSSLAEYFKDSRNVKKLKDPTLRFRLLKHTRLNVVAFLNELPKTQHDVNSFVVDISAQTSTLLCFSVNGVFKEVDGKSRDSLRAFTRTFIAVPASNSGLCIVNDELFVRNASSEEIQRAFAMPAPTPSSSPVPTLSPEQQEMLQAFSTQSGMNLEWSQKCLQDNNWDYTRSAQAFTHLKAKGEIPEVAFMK
B2: Serine/arginine-rich splicing factor 3 (Homo sapiens), P84103 (parent)
chain: MHRDSCPLDCKVYVGNLGNNGNKTELERAFGYYGPLRSVWVARNPPGFAFVEFEDPRDAADAVRELDGRTLCGCRVRVELSNGEKRSRNRGPPPSWGRRPRDDYRRRSPPPRRRSPRRRSFSRSRSRSLSRDRRRERSLSRERNHKPSRSFSRSRSRSRSNERK
partner: B1 partner

Variants of: B1
Details: with nxf1_human NXF1, Q9UBU9

Which “effect of a mutation on the interaction” value does the source give for MSRYGRYGGETKVYVGNLGTGAGKGELERAFSYYGPLRTVWIARNPPGFAFVEFEDPRDAEDAVRGLDGKVICGSRVRVELSTGMPRRSRFDRPPAERPFDPNDRCYECGEKGHYAYDCHRYSRRRRSRSRSRSHSRSRGRRYSRSRSRSRGRRSRSASPRRSRSISLRRSRSASLRRSRSGSIKGSRYFQSPSRSRSRSRSISRPRSSRSKSRSPSPKRSRSPSGSPRRSASPERMD [R97E] here?
The value was “disrupting interaction”.

Which “effect of a mutation on the interaction” value does the source give for MSRYGRYGGETKVYVGNLGTGAGKGELERAFSYYGPLRTVWIARNPPGFAFVEFEDPRDAEDAVRGLDGKVICGSRVRVELSTGMPRRSRFDRPPAREPFDPNDRCYECGEKGHYAYDCHRYSRRRRSRSRSRSHSRSRGRRYSRSRSRSRGRRSRSASPRRSRSISLRRSRSASLRRSRSGSIKGSRYFQSPSRSRSRSRSISRPRSSRSKSRSPSPKRSRSPSGSPRRSASPERMD [R98E] here?
The value was “disrupting interaction”.

Variants of: B1
Details: with nxf1_human NXF1, Q9UBU9
Remark: another data set of the same source

With MSRYGRYGGETKVYVGNLGTGAGKGELERAFSYYGPLRTVWIARNPPGFAFVEFEDPRDAEDAVRGLDGKVICGSRVRVELSTGMPERSRFDRPPARRPFDPNDRCYECGEKGHYAYDCHRYSRRRRSRSRSRSHSRSRGRRYSRSRSRSRGRRSRSASPRRSRSISLRRSRSASLRRSRSGSIKGSRYFQSPSRSRSRSRSISRPRSSRSKSRSPSPKRSRSPSGSPRRSASPERMD [R87E] as the variant, how does the “effect of a mutation on the interaction” value read?
The value was “disrupting interaction”.

With MSRYGRYGGETKVYVGNLGTGAGKGELERAFSYYGPLRTVWIARNPPGFAFVEFEDPRDAEDAVRGLDGKVICGSRVRVELSTGMPRESRFDRPPARRPFDPNDRCYECGEKGHYAYDCHRYSRRRRSRSRSRSHSRSRGRRYSRSRSRSRGRRSRSASPRRSRSISLRRSRSASLRRSRSGSIKGSRYFQSPSRSRSRSRSISRPRSSRSKSRSPSPKRSRSPSGSPRRSASPERMD [R88E] as the variant, how does the “effect of a mutation on the interaction” value read?
Its value is “disrupting interaction”.

Variants of: B2
Details: with nxf1_human NXF1, Q9UBU9

Which “effect of a mutation on the interaction” value does the source give for MHRDSCPLDCKVYVGNLGNNGNKTELERAFGYYGPLRSVWVARNPPGFAFVEFEDPRDAADAVRELDGRTLCGCRVRVELSNGEKRSENRGPPPSWGRRPRDDYRRRSPPPRRRSPRRRSFSRSRSRSLSRDRRRERSLSRERNHKPSRSFSRSRSRSRSNERK [R88E] here?
The value was “disrupting interaction”.

Variants of: B2
Details: with nxf1_human NXF1, Q9UBU9
Remark: another data set of the same source

Which “effect of a mutation on the interaction” value does the source give for MHRDSCPLDCKVYVGNLGNNGNKTELERAFGYYGPLRSVWVARNPPGFAFVEFEDPRDAADAVRELDGRTLCGCRVRVELSNGEKESRNRGPPPSWGRRPRDDYRRRSPPPRRRSPRRRSFSRSRSRSLSRDRRRERSLSRERNHKPSRSFSRSRSRSRSNERK [R86E] here?
Its value is “disrupting interaction”.

Variants of: B2
Details: with nxf1_human NXF1, Q9UBU9
Remark: another data set of the same source

With MHRDSCPLDCKVYVGNLGNNGNKTELERAFGYYGPLRSVWVARNPPGFAFVEFEDPRDAADAVRELDGRTLCGCRVRVELSNGEKRSRNEGPPPSWGRRPRDDYRRRSPPPRRRSPRRRSFSRSRSRSLSRDRRRERSLSRERNHKPSRSFSRSRSRSRSNERK [R90E] as the variant, how does the “effect of a mutation on the interaction” value read?
Its value is “disrupting interaction”.

Source: IntAct's records for PubMed 17036044
